Test results taken from patent publication US20220025055A1 (Boehringer Ingelheim, published 2022).

Columns and labels:
[1] = molecular target: T1, mouse FLT3 (mouse, UniProt Q00342 28-544, limits assumed); assay: not described
T1 construct: Named only in one sentence; no assay is described
T1 sequence (looked up): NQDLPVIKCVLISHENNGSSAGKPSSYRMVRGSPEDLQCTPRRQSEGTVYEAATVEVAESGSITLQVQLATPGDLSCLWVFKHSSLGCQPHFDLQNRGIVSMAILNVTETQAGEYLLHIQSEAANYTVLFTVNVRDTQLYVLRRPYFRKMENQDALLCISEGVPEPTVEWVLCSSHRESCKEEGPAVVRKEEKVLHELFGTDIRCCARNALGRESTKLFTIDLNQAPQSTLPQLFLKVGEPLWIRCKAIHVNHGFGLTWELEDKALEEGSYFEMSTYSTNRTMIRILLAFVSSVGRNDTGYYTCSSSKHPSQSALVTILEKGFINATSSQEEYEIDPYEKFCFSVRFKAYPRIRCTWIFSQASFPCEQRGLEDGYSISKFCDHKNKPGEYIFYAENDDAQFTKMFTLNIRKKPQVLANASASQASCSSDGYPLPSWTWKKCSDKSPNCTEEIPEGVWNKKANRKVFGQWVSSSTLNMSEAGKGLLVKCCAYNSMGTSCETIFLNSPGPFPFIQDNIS

[2] = molecular target: T2, human FLT3 (FMS-like tyrosine kinase 3) (human, UniProt P36888 27-993); assay: cell-based or functional assay
T2 sequence (looked up): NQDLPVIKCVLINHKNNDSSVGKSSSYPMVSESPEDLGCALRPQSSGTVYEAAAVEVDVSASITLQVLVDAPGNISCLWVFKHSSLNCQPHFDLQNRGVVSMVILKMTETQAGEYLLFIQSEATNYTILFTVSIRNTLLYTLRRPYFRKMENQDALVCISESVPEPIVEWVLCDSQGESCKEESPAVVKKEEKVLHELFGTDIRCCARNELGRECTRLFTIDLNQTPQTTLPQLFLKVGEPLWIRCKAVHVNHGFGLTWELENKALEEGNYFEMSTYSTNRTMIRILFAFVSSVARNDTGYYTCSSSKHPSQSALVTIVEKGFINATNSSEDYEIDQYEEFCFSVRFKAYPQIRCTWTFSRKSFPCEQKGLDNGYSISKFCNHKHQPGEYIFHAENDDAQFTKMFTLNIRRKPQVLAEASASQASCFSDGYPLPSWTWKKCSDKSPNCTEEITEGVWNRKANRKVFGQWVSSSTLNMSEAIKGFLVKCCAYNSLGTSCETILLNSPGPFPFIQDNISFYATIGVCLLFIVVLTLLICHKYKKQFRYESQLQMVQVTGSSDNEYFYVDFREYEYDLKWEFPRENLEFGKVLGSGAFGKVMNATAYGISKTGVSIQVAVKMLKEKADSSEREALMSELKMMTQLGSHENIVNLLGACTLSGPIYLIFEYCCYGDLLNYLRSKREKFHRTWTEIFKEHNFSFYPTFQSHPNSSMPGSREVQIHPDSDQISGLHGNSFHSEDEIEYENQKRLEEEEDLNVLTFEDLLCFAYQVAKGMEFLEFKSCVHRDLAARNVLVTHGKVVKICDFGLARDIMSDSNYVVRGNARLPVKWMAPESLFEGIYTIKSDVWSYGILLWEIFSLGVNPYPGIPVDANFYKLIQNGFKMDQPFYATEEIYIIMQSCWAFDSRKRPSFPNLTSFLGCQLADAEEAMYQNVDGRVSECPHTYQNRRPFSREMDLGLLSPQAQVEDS

[3] = molecular target: T3, cynomolgus FLT3 (cynomolgus, UniProt A0A2K5VQ48 27-993); assay: cell-based or functional assay
T3 sequence: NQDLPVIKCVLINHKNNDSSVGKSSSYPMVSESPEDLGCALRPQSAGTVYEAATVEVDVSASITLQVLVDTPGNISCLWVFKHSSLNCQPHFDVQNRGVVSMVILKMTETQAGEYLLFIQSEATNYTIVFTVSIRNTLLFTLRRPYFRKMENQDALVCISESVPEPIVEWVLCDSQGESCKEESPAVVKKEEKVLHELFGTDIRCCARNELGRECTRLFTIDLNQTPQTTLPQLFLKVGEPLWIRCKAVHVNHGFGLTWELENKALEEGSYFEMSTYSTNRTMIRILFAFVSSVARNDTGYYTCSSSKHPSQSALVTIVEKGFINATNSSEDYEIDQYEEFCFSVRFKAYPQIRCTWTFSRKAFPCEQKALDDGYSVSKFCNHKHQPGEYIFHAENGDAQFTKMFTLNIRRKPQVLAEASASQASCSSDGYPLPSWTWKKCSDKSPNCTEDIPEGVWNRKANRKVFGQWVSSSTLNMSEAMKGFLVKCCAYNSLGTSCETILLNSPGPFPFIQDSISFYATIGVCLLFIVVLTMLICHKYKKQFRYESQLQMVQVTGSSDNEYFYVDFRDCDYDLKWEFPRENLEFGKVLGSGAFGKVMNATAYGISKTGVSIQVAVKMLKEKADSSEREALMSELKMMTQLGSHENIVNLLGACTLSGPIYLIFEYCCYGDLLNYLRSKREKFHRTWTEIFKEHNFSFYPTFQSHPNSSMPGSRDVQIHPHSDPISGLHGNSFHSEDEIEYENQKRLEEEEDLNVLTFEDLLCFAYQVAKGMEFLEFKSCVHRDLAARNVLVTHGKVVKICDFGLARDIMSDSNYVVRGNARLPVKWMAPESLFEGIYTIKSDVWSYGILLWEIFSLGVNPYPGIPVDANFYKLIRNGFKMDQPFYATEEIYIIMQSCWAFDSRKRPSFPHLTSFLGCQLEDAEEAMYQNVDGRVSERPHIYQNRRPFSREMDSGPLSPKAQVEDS

[4] = molecular target: T3, cynomolgus FLT3; assay: flow cytometry on stably expressing cyno FLT3-STAT5-Luciferase cells, AF488 anti-human IgG (H+L) detection
Experimental: (§1) Since NB1113 binds to human FLT3, but not mouse FLT3, the binding and functional activity of NB1113 was evaluated in both human and cynomolgus (cyno) FLT3-expressing systems. Stably expressing human and cyno FLT3-STAT5-Luciferase cells were used for both binding and functional assays. The binding of NB1113 to human or cyno FLT3 was assessed by flow cytometry using different concentrations of NB1113 in PBS+2% FBS, followed by detection using AF488 anti-human IgG (H+L) secondary antibody.

[5] = molecular target: T2, human FLT3 (FMS-like tyrosine kinase 3); assay: flow cytometry on stably expressing human FLT3-STAT5-Luciferase cells, AF488 anti-human IgG (H+L) detection
Experimental: as §1

B1: NB1113 (antibody, V domains shown)
VH: EVQLLESGGGLVQPGGSLRLSCAPSGFTFSNYGMAWVRQAPGKGLEWVSSIHSGGGDTYYRDSVKGRFTISRDNSKNTLYLQMNSLRAEDTAVYYCARGRTPTGYYFDHWGQGTMVTVSS
VL: DIQMTQSPSSLSASVGDRVTITCRASEGIHSGLAWYQQKPGKVPKLLIYNANSLHSGVPSRFSGSGSGTDFTLTISSLQPEDVATYFCQQYYDYPLTFGQGTKLEIK
notes: Light chain variant (N31S in CDR-L1) of humanized NB1063 (VH1 x VL1); The constant regions are not restated for the humanized antibodies; the parent chimera NB1016 is human IgG4PAA (S228P, F234A, L235A) / human kappa; also called NB11113; N31S light chain variant of NB1063
binding result [1]: no binding | EC50 in human FLT3-STAT5-Luciferase reporter assay [2]: 1.1 nM | EC50 of expansion of HLA-DR+CD1c+ cells from primary human bone marrow, 12 days [2]: 0.113 nM | EC50 in cyno FLT3-STAT5-Luciferase reporter assay [3]: 1.6 nM | EC50 [4]: 0.9 nM | EC50 [5]: 1.36 nM
